This data set has as its system MS2 coat protein. The data set can be described thus: apparent KD of MS2 coat protein; designed switch direction (-1 OFF switch, 1 ON switch): -1; higher = weaker reporter binding. The method in brief:
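Designed RNA switches sharing common flanks were transcribed on Illumina chips by stalled E. coli RNA polymerase. They were titrated with SNAP-549-labelled MS2 coat protein, from 0.7 or 1.5 nM doubling to 3 µM, in Tris-HCl pH 7.5 buffer with KCl, MgCl2, BSA, DTT, tRNA and Tween-20. Titrations ran without input, with 200 uM small-molecule ligand, or with an oligonucleotide input. The apparent KD of each design is the median over its clusters, after curve-fitting of normalised cluster fluorescence.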

[1] abbreviates: Eterna round: R95, input ligand: FMN 200 uM.
[2] abbreviates: Eterna round: R95, input ligand: microRNA oligo, concentration not stated.
Where [3] appears, read: Eterna round: R95, input ligand: none.
Where [4] appears, read: input ligand: microRNA oligo, concentration not stated.

We go through 31 sequences from the supplement of paper PMC9170038.

Regarding “AAUUAACAAGCGAGAUCCUACAUGAGGAUCACCCAUGUGCUCGUCUUAUAAAGUACUAUCACGAAAGUGAUAGUACA [Mat - Sensor v3 - turn-off var 1 - Eli Mod - D64] (puzzle: Sensor v3, turn-off variant 1)”, the “apparent KD of MS2 coat protein” value by setting is: under setting [1], 21.8 nM; under setting [2], 215 nM; under setting [3], 19.5 nM.

As for “AAGAAACAUGAGGAUCACCCAUGUGAGGAUAUGUAAAAGAAAAGAAAAUAAAGAAGAAACAGAAGGCACAAAGG [Mat - Mod of Hog D21] (Eterna round: R96, puzzle: Exclusion 1)”, the “apparent KD of MS2 coat protein” value under setting [4] came to 30.9 nM.

Turning to “GUAGAGUCAGGAUAUACGAGAUCGAUAGAUCGGCGAUCCAAACAUGAGGAUCACCCAUGUAGAAGGGACUCUAC [Mat - Exclusion 2 - Eli Mod - D4] (Eterna round: R97, puzzle: Exclusion 2)”, the “apparent KD of MS2 coat protein” value is, setting by setting: (input ligand: FMN 200 uM) 1160 nM; (input ligand: none) 41.6 nM.

“CCAAGCUUAUUCAUUAACCACAUGAGGAUCACCCAUGUCUAGGCAAUUAUGACUUGCCCAUCAGGUGCUCGUCUUAU [Sensor-V1 #33] (Eterna round: R97, puzzle: Sensor, turn-off variant 1)”: the “apparent KD of MS2 coat protein” value (input ligand: FMN 200 uM) worked out at 68.7 nM and the “apparent KD of MS2 coat protein” value (input ligand: none) came to 72.3 nM.

As to “CUAACACAUGAGGAUCACCCAUGUGAGGAUAUGCGUACGUUGUCCGUAGGCGACGUGCGCAGAAGGCGCUUGGU [JL-ex1-3.20 Eli mod] (puzzle: Exclusion 1)”, the “apparent KD of MS2 coat protein” value under setting [2] worked out at 51.9 nM.

Take “AUUAAACAUGUAGGAUAUGCGUGGCAAAGCUAUGCAGAAGGACAUGAGGAUCACCCAUGUAAAAGCGUCUGCGUACAGAUGCAA [Mat - Exclusion NG 1 - Mod of JL - D86] (Eterna round: R96, puzzle: Exclusion NG 1)”: the “apparent KD of MS2 coat protein” value is 314 nM (input ligand: FMN 200 uM), 30.7 nM under setting [4] and 41.3 nM (input ligand: none).

As to “UAUUAACAAGCGAGAUCCCACAUGAGGAUCACCCAUGUGCUCGUCUUAUAAGGUACUGUGACGAAAGUCACGGUACC [Sensor 3, v1 - 91 v2] (Eterna round: R97, puzzle: Sensor, turn-off variant 1)”, the “apparent KD of MS2 coat protein” value by setting is: (input ligand: FMN 200 uM) 17 nM; (input ligand: none) 15.7 nM.

As for “UAAAACGUAGGAUAUGCGGAAAAUAACUUGAGGAUCACCCAAGUGUCCGAGAGGCUAAAUGCAGAAGGACGAGAUC [Edxedi] (Eterna round: R97, puzzle: Exclusion 5)”, the “apparent KD of MS2 coat protein” value came out at 179 nM (input ligand: FMN 200 uM) and 105 nM (input ligand: none).

In the case of “GGUGCGUUUGUGAGGAUAUGCUGGUCCUUGGAUCAGCAGAAGGCACAUGAGGAUCACCCAUGUGGUGUCCCUCC [salish99_Bmod_Ex4_040] (puzzle: Brourd's mod of Exclusion 4)”, the “apparent KD of MS2 coat protein” value under setting [2] came out at 154 nM.

As for “GUCGUACAUGAGGAUCACCCAUGUGAGGAUAUGAGUGGUGCUGCUAGGUAGUAUAGACUCAGAAGGCGCAUGAU [Malcxlusion 2 - Jieux - Exclusion 1] (Eterna round: R97, puzzle: Exclusion 1)”, the “apparent KD of MS2 coat protein” value reads like this: (input ligand: FMN 200 uM) 250 nM; (input ligand: none) 91.5 nM.

“AAGAAACAUGAGGAUCACCCAUGUGAGGAUAUGGCCCGCCCGGCGUGAGCUGGAUAAAUCAGAAGGCACAAAGG [salish99_ex1_r4_012] (Eterna round: R97, puzzle: Exclusion 1)”: the “apparent KD of MS2 coat protein” value reads like this: (input ligand: FMN 200 uM) 57.2 nM; (input ligand: none) 46 nM.

In the case of “AAUUCACAUGAGGAUCACCCAUGUCAGGAUAUGGUGACGCGGGUUUCGGUGCGUGUUGCCAGAAGGGACGGCUG (puzzle: Exclusion 1)”, the “apparent KD of MS2 coat protein” value under setting [2] worked out at 92.4 nM.

In the case of “GAAAACGUAGGAUAUUAAUACUCAGACAUGAGGAUCACCCAUGUUUGGUGGGUUUAAGAAUGAGAAGGGCGAUGAA [EX5 #6] (Eterna round: R97, puzzle: Exclusion 5)”, the “apparent KD of MS2 coat protein” value runs as follows: (input ligand: FMN 200 uM) 49 nM; (input ligand: none) 49 nM.

On to “GUUGCGUUUGUGAGGAUAUGCUGUUCCUUGGUUCGGCAGAAGGCACAUGAGGAUCACCCAUGUGGUGUCGUUCC [salish99_Bmod_ex4_053] (puzzle: Brourd's mod of Exclusion 4)”, for which the “apparent KD of MS2 coat protein” value under setting [2] was 14.6 nM.

On to “ACUAGCUUUUUGCAUUUUAGGUUUGUUGCUUCGUAUGUAACAUGAGGAUCACCCAUGUAUUACUGAUGUCGUCGUUU [JR_SV3TOV2_Sub090] (puzzle: Sensor v3, turn-off variant 2)”, for which the “apparent KD of MS2 coat protein” value stood at 18.4 nM under setting [1], 16.5 nM under setting [2] and 18.5 nM under setting [3].

In the case of “AAUAAUUGUGACUUGGGUGACAUGAGGAUCACCCAUGUCACAAGCUUGUUGCUCGCCUUGUAAUUAACCCAUGUCAC [LRO Sensor-off var1-27 mod of Stov1-13-A1 by Brourd] (Eterna round: R97, puzzle: Sensor, turn-off variant 1)”, the “apparent KD of MS2 coat protein” value came to 22.2 nM (input ligand: FMN 200 uM) and 20.8 nM (input ligand: none).

As for “ACGAUGACUGAAAAGUGUAAACUGACAUGAGGAUCACCCAUGUAGGAUAUGGCUACGAAAAGUAGUCAGAAGGGCAUGUCAUCA [Omei Exc(NG) 3 Av10] (Eterna round: R96, puzzle: Exclusion NG 3)”, the “apparent KD of MS2 coat protein” value is, setting by setting: (input ligand: FMN 200 uM) 14.3 nM; under setting [4], 13.4 nM; (input ligand: none) 17.1 nM.

Turning to “GAUUAUGCGAGCUUUAGGGACAUGAGGAUCACCCAUGUUCGUCUUAUUAGUCUAAAUACACUGACAUACCUAAAUCU [JMF 54] (puzzle: Sensor v3, turn-off variant 1)”, the “apparent KD of MS2 coat protein” value under setting [1] amounted to 17.3 nM, the “apparent KD of MS2 coat protein” value under setting [2] was determined as 15.9 nM and the “apparent KD of MS2 coat protein” value under setting [3] worked out at 13.6 nM.

Turning to “AGAUCACAUGAGGAUCACCCAUGUGAGGAUAUGGACUGAAGAGCUUCGGCUCUUCAGUCCAGAAGGCACAAUGA [EX1 #43] (Eterna round: R97, puzzle: Exclusion 1)”, the “apparent KD of MS2 coat protein” value (input ligand: FMN 200 uM) was determined as 40.7 nM and the “apparent KD of MS2 coat protein” value (input ligand: none) was found to be 28.9 nM.

On to “AUAAGUGAUAAGGAUAUUACUAGCCUCGGCUAGUGAGAAGGUAUCACAUGAGGAUCACCCAUGUGUUCCAAUAA [Ex6/7-B2] (Eterna round: R97, puzzle: Exclusion 6)”, for which the “apparent KD of MS2 coat protein” value was determined as 297 nM (input ligand: FMN 200 uM) and 119 nM (input ligand: none).

For the sequence “GGUGCUGGCGCGUCGGUGUUGGUGCAAUAAGCUUGUGAGACAUGAGGAUCACCCAUGUCCUCGUGGGCUCGUCUUGU [salish99_TOv2_r2_091] (puzzle: Sensor v3, turn-off variant 2)”, the “apparent KD of MS2 coat protein” value is, setting by setting: under setting [1], 91.2 nM; under setting [2], 79.3 nM; under setting [3], 93.7 nM.

As to “UUUAAGGUAAUUAAGAUCACAUGAGGAUCACCCAUGUAUAUAUAGGAUAUCAGCUCGUUUAGAGCUGAGAAGGAUAUAUACAUA [ExNG3/6-C2] (Eterna round: R96, puzzle: Exclusion NG 3)”, the “apparent KD of MS2 coat protein” value worked out at 21.6 nM (input ligand: FMN 200 uM), 178 nM under setting [4] and 136 nM (input ligand: none).

With “GAGAAACAUGAGGAUCACCCAUGUGAGGAUAUGAAAAAGAAAAGAAAAGAAAGAAGAAUCAGAAGGCACAAAGG [salish99-ex1_r3_078] (puzzle: Exclusion 1)”, the “apparent KD of MS2 coat protein” value came to 45.3 nM under setting [1], 30.8 nM under setting [2] and 39.1 nM under setting [3].

As to “AAAUCACAUGAGGAUCACCCAUGUGAGGAUAUGAUACUAUGUACUUCGGUACAUAGUAUCAGAAGGCAUGUGGA [Ex1-3: 89] (Eterna round: R96, puzzle: Exclusion 1)”, the “apparent KD of MS2 coat protein” value runs as follows: (input ligand: FMN 200 uM) 43.1 nM; under setting [4], 22.6 nM; (input ligand: none) 29.5 nM.

For the sequence “UUGGAGAUAGGAUAUACGAGGAGAGUAGAGGGAAGGUGAGGACAUGAGGAUCACCCAUGUAGAAGGAUCAGGAG [JR_Exclu2_Sub067] (puzzle: Exclusion 2)”, the “apparent KD of MS2 coat protein” value by setting is: under setting [1], 34.8 nM; under setting [2], 34.8 nM; under setting [3], 47.6 nM.

Consider “CUCUAGUCAGGAUAUUAGUUGCCACCUGGACACAGGCGGCAUGAGAAGGGACUUGAGGAUCACCCAAGUAAAAG [Quaesbe] (Eterna round: R97, puzzle: Exclusion 4)”, for which the “apparent KD of MS2 coat protein” value (input ligand: FMN 200 uM) stood at 384 nM and the “apparent KD of MS2 coat protein” value (input ligand: none) was 758 nM.

With “AAUUCACAUGAGGAUCACCCAUGUGAGGAUAUGGUUUCGCUGGCCGUAGCCAGUGGAACCAGAAGGCGCAUGAU [Mat - Exclusion 1 - JL Mod - D11] (Eterna round: R97, puzzle: Exclusion 1)”, the “apparent KD of MS2 coat protein” value runs as follows: (input ligand: FMN 200 uM) 30.7 nM; (input ligand: none) 28.9 nM.

With “UAUUAACAUGUAGGAUAUCUGCACGUUUAGUGCAGAGAAGGACAUGAGGAUCACCCAUGUAGAUCAUAAUAAUUUAAUUUAAUU [ENG1/6-D2] (Eterna round: R96, puzzle: Exclusion NG 1)”, the “apparent KD of MS2 coat protein” value (input ligand: FMN 200 uM) came to 541 nM, the “apparent KD of MS2 coat protein” value under setting [4] was found to be 141 nM and the “apparent KD of MS2 coat protein” value (input ligand: none) is 117 nM.

As for “GCGCACCUACCAAAAGGUAGGUCCACAUGAGGAUCACCCAUGUAGGAUAUCGAUUGCUUUGCAGUCGAGAAGGACAUGAUGCGC [JL ENG3 3.80 Mod 10] (Eterna round: R96, puzzle: Exclusion NG 3)”, the “apparent KD of MS2 coat protein” value is 52.3 nM (input ligand: FMN 200 uM), 18.1 nM under setting [4] and 21.3 nM (input ligand: none).

With “UUUUAACAUGAGGAUCACCCAUGUGAGGAUAUCGUAUUUUAUAUUAAUAUUAAUAAAACGAGAAGGCACAUUUU [JMF 9] (puzzle: Exclusion 1)”, the “apparent KD of MS2 coat protein” value by setting is: under setting [1], 28.4 nM; under setting [2], 25.4 nM; under setting [3], 29.5 nM.

For the sequence “GUAGAGUAAGGAUAUGGAGAAUAGGAUAGAAUGGUUAGAAUCUAGAAGGUACAUGAGGAUCACCCAUGUAAUGU [Excluse me!!!! 9 - Jieux - Exclusion 4] (puzzle: Exclusion 4)”, under setting [2], the “apparent KD of MS2 coat protein” value is 21.2 nM.
